Series [1] concerns O=[N+]([O-])c1ccc(OP(=O)(O)O)cc1. Description: purified protein, by the assay type.
Series [2] deals with Cc1cc(=O)oc2c(F)c(OP(=O)(O)O)c(F)cc12. Description: purified protein, by the assay type.
[3] abbreviates: other: pNPP, 25 mM HEPES pH 7.5, 30 °C, mean of 3 ± SD.
The mark [4] stands for this setting: other: DiFMUP, 0.5 nM enzyme, pH 7.5, 30 °C, mean of 3 ± SD.

Consider “CgCdc14 (Colletotrichum gloeosporioides)”, for which, in series [1] (setting [3]), the Km was determined as 30 ± 4 mM, the kcat was determined as 0.6 ± 0.1 s⁻¹ and the kcat/Km turned out to be 20 ± 2 M⁻¹ s⁻¹. Also, in series [2] (setting [4]), the Km is 0.078 ± 0.012 mM, the kcat came out at 7 s⁻¹ and the kcat/Km was 86000 ± 6100 M⁻¹ s⁻¹.
Take MoCdc14 (Pyricularia oryzae 70-15): the Km was 25 ± 1 mM in series [1] (pH 7.5, 30.0 °C) and 0.044 ± 0.011 mM in series [2] (pH 7.5, 30.0 °C).

The record behind these values is article PMC7374715, “Conservation of Cdc14 phosphatase specificity in plant fungal pathogens: implications for antifungal development” (Scientific Reports, 2020).
